According to US10501549B2, “Methods of inhibiting pathological angiogenesis with doppel-targeting molecules” (SEOUL NATIONAL UNIVERSITY R&DB FOUNDATION, priority 2015, dated 2019):

B1: 5C7: murine anti-doppel mAb of hybridoma clone 5C7; VL SEQ ID NO: 53, VH SEQ ID NO: 59 (antibody, V domains shown)
VH: QVQLQQSGTELVRPGSSVKISCKASGYAFSSHWMNWVKQRPGQGLEWIGQIYPRNGDTNYNGKFKGKATLTADKSSSTAYMQLSSLTSEDSAVYFCSRSTTIVTTGAYWGQGTLVTVSA
VL: DIQMTQSPSSLSASLGERVSLTCRASQEISGYLSWLQQKPDGTIKRLIYAASILDSGVPKRFSGSRSGSDYSLTISSLESEDFADYYCLQYASYPFMFGAGTKLELKR
B2: 4D6: murine anti-doppel mAb of hybridoma clone 4D6; VL SEQ ID NO: 49, VH SEQ ID NO: 55 (antibody, V domains shown)
VH: QVQLHQSGSELARPGASVKLSCKASGYTFTNYWMQWVKQRPGQGLEWIGAIYPGDGNTRYSQKFKGKATLTADKSSSTAYMQLSSLASEDSAVYYCARRDYGSSYWYFDVWGAGTTVTVSS
VL: DVLMTQTPLSLPVSLGDQASISCRSSQSIVHSNGNTYLEWYLQKPGQSPKLLIYKVSNRFSGVPDRFSGSGSGTDFTLKISRVEAEDLGVYYCFQGSHVPLTFGAGTKLELKR

Assays:
[1] = system: VEGFR2; assay: VEGF-induced VEGFR2 phosphorylation in HUVECs in presence of rDPl; format: cell-based, human; conditions: in the presence of rDPl
[2] = system: HUVEC spheroids; assay: HUVEC spheroid sprouting with VEGF and rDPl; format: cell-based, human; conditions: co-treated with VEGF, different concentrations rDPl
Description: To test this hypothesis, HUVEC spheroids were treated with VEGF in the presence or absence of rDPl. VEGF promoted HUVEC spheroid sprouting; the sprouting was augmented when co-treated with different concentrations rDPl and in Hu.dpl spheroids (FIG. 27A).

[3] = system: HUVEC spheroids; assay: HUVEC spheroids implanted in Matrigel-fibrin gel in vivo; parameters: species or system SCID mice; conditions: VEGF and rDPl-treated HUVEC spheroids
Source text: HUVEC spheroids in vivo were implanted in Matrigel-fibrin gel in the presence of doppel and VEGF following an established protocol (see Alajati et al., Nat Methods. 5:439-445 (2008) and Laib et al., Nat Protoc. 4:1202-1215 (2009)); Hu.dpl spheroids were used to compare. […] In contrast, the presence of VEGF and rDPl generated a complete and perfused vascular bed in the Matrigel-fibrin gel. […] These findings support that rDPl enhances angiogenesis in tumor.

[4] = system: EL4 tumor; assay: Rescue of EL4 tumor growth in Dpl+/− KO mice by rDPl; format: in vivo, Dpl+/− KO C57BL/6 mice
Description: To rescue angiogenesis and growth of tumor, Dpl^+/− KO mice were treated with intravenous injection of 1 mg/kg of rDPl three times after the 4th day of EL4 tumor inoculation. EL4 cells were also inoculated with 1 and 10 μg of rDPl in a mixture with 50 μL of Matrigel, in Dpl^+/− KO mice and grown for 10 days.

[5] = system: TEC spheroids; assay: TEC spheroid sprouting; format: cell-based, mouse
Description: The spheroid-based in vivo angiogenesis assay was performed according to a published procedure. Briefly, 8×10^6 TECs or TEC^−/−dpl were suspended in […] media containing 20% methocel solution and 80% culture medium. Cells were divided into non-adherent plastic square petri dishes, 25 μL for each spheroid. Spheroids formed by TECs or TEC^−/−dpl were harvested and mixed in a matrigel/fibrin mixture that contained mouse VEGF and bFGF. TECs or TEC^−/−dpl spheroids (1000 spheroids per plug) were inoculated subcutaneously in the flank of each female SCID mouse (5-6 weeks, Jungang Animal Lab, Korea) or female Balb/c nude mice (Orinet bio, Seongnam, Korea). The spheroids were allowed to grow for 3 weeks. Cy5.5-labeled LMWH, at a dose 2.5 mg/kg, was injected intravenously, and at 2 hours after injection, its accumulation at the site of TEC implantation was checked using Optimax-MX3 (GE Medical Systems, Milwaukee, Wis.). In other experiments, Cy5.5-labeled LHbisD4, at a dose 10 mg/kg, was administered orally, and its distribution was also checked as described previously. The matrix plug was removed and part of the plugs was analyzed for microvessel density and drug accumulation by immunofluorescence staining.
Custom made murine anti-doppel mAbs were acquired and tested for recognition of mouse doppel present in host-derived blood vessels of tumors, ability to block doppel function in vitro, and ability to arrest tumor growth. The selection strategy involved screening for binding with mouse doppel using ELISA and testing for ability to detect doppel protein in TEC lysates using western blot. Six independent clones (7D9, 1B12, 1C8, 5C7, 4D6, and 6F11) were identified. Of the six clones, 5C7 and 4D6 abrogated mouse VEGF (mVEGF)-induced sprouting of TEC spheroids (FIG. 20A, B).

[6] = system: VEGFR2; assay: mVEGF-induced VEGFR2 phosphorylation in TECs (immunoblot); format: cell-based, mouse; conditions: purified clones
[7] = system: CT26 colon cancer; assay: CT26 colon cancer model, tumor growth and angiogenesis; format: in vivo, mice; conditions: for tumor volume and weight: intravenous 5 and 10 mg/kg, compared to saline and control IgG; for reduction of tumor growth: intravenous
Description: Based on the in vitro data, clones 4D6 and 5C7 were selected to study the anti-tumor and anti-angiogenic effect of in a murine-derived CT26 colon cancer model. When the tumors reached an average size of 50 mm^3, the mice were treated with intravenous doses of 5 and 10 mg/kg 4D6 and 5C7 mAb clones. […] When administered at a dose of 10 mg/kg once or twice a week, 4D6 mAb reduced the tumor growth by 71.1±4.2% or 87.9±3.9%, respectively.

[8] = Preliminary safety observations in treated tumor-bearing mice; format: in vivo
[9] = system: VEGFR2; assay: VEGFR2 dimerization/clustering in Hu.dpl cells (proximity ligation assay, western blot); format: cell-based, human
Source text: The effect of doppel on VEGFR2 dimerization in the absence of VEGF was investigated. In situ proximity ligation assay (PLA) was used to see VEGFR2 homodimers/clusters in intact cells (FIG. 22G, H). […] It was observed that the dynamics between VEGFR2 monomer-dimer using western blot (FIG. 28A). In HUVECs, the prominent 125 kDa and a relative weaker 250 kDa band appeared as VEGFR2 monomer and dimer, respectively. In Hu.dpl cells, VEGFR2 was detected at 250 kDa band in immunoblots.

[10] = biological target: doppel (Mus musculus, UniProt Q9QUG3); assay: Epitope mapping; format: binding; conditions: doppel peptide mapping
Source text: (The same sequence appears in both mouse and human doppel.) FIG. 32 discloses SEQ ID NOS 63-98, respectively, in order of appearance, in the x-axis of the graph and SEQ ID NO: 11 in the body of the graph.
(The corresponding sequence in human doppel is FPDGIH (SEQ ID NO: 61).) FIG. 33 discloses SEQ ID NOS 63-98, respectively, in order of appearance, in the x-axis of the graph and SEQ ID NOS 99-102, 12 and 103-104, respectively, left to right, in order of appearance, in the body of the graph.

[11] = system: HCT116 human colon cancer; assay: HCT116 human colon cancer mouse xenograft; format: in vivo, mice
Source text: The antitumor effect of 4D6 mAb was also observed in HCT116 human colon cancer mouse xenografts. 4D6 mAb inhibited tumor growth (FIG. 19C, D), doppel- and CD31-positive tumor vessels (FIG. 19E), and mean tumor blood vessels density commensurately with dose and dosing frequency (FIG. 19F, G).

[12] = mVEGF-induced, cell supernatants of clones
[13] = purified clones, different concentrations

Row | Molecule | VEGFR2 phosphorylation by VEGF [1] | HUVEC spheroid sprouting [2] | hemoglobin content of spheroid plugs [3] | growth of tumors ([4]; EL4 cells inoculated with 1 and 10 μg of rDPl in Matrigel) | localization in tumor tissues ([4]; intravenously injected rDPl) | sprouting of TEC spheroids [5, 12] | sprouting of TEC spheroids [5, 13] | VEGFR2 phosphorylation in TECs [6] | tumor volume and weight [7] | body weight [8] | clinical chemistry or hematological blood profile [8] | organ pathology upon inspection and histological analysis [8] | VEGFR2 dimerization/clustering ([9]; Hu.dpl cells, in situ PLA) | VEGFR2 band in immunoblot ([9]; treated Hu.dpl cells, untreated Hu.dpl 250 kDa (dimer)) [kDa] | epitope bound [10] | reduction of tumor growth ([7]; 10 mg/kg once a week) [%] | reduction of tumor growth ([7]; 10 mg/kg twice a week) [%] | doppel- and CD31-positive tumor vessels and mean tumor blood vessels density ([11]; commensurately with dose and dosing frequency) | tumor growth ([11]; intravenous 5 and 10 mg/kg once a week, 10 mg/kg twice a week)
1 | rDPl: recombinant doppel (rDPl) protein | robustly and dose dependently increased | augmented | higher than control and VEGF-treated spheroids | dose dependently rescued | concentrated and colocalized with VEGFR2- and CD31-positive vessels |  |  |  |  |  |  |  |  |  |  |  |  |  | 
2 | B1 |  |  |  |  |  | abrogated | dose-dependently prevented | dose-dependently prevented | markedly regressed | no changes | no alteration | no obvious organ pathology | severely compromised | 125 | FPDGIY |  |  |  | 
3 | B2 |  |  |  |  |  | abrogated | dose-dependently prevented | dose-dependently prevented | markedly regressed | no changes | no alteration | no obvious organ pathology |  |  | YWQFPD | 71.1±4.2 | 87.9±3.9 | inhibited | inhibited
